Measured values from the supplement of paper PMC10126150.
± gives the standard deviation of the averaged measurements.

System: ATP
Experiment: switch fluorescence ratio, 500 uM ATP over buffer (Cy3 cluster intensity, sum of 5 cycles each) (fold (ratio)); higher = stronger signal-on switching upon ATP binding; sequences stand for … in TCGTCGGCAGCGTCAGATGTGTATAAGAGACAGTTTTTTTTTTTTTTTTTTTTTTTTT…TC
Details: aptamer strand: ATP DNA aptamer (quencher-CACCTGGGGGAGTATTGCGGAGGAAGG + anchor), 100 nM annealed; ATP concentration: 500 uM
Method in brief: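 Cy3-labelled switching-strand clusters on a modified Illumina MiSeq flow-cell were annealed to 100 nM quencher-labelled ATP aptamer, imaged in selection buffer, then imaged after 15 min with 500 uM ATP at 22 °C. Five buffer/ATP cycles ran, with NaOH stripping and re-annealing between them. The fluorescence ratio is summed target-cycle over summed buffer-cycle Cy3 intensity per cluster, averaged per switch-domain sequence. Clusters outside 100-1000 RFU were excluded.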
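Also: ATP exposure 15 min at 22 °C before imaging.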

Sequence | switch fluorescence ratio
CGCTTAAAGT | 1.03 ± 0.05
AGAAAGAAAA | 0.993 ± 0.09
AGTGCCTGCG | 1.02 ± 0.032
CAGGTATGAA | 1 ± 0.02
CTATGGGATG | 0.992 ± 0.039
TTTTAAAGTG | 0.993 ± 0.034
ACAAACACTT | 1.158 ± 0.01
GGTTTGGTCA | 1 ± 0.0055
GTTGTAATCA | 0.98 ± 0.024
TGGGGTGTTT | 0.983 ± 0.045
TGATGAGATC | 0.9734 ± 0.0082
GTGGATTGGC | 0.982 ± 0.035
CTCGATGTGG | 0.985 ± 0.044
GGTTCCAAGC | 1.06 ± 0.04
TTTTCTCAGC | 1.05 ± 0.029
GGGAATCGGG | 1 ± 0.019
AGCAAGGATT | 1.1 ± 0.1
CCGGTATTTG | 1.021 ± 0.0077
GGGCAAAATC | 1.04 ± 0.018
TGTGAAACGG | 0.9916 ± 0.0072
ATGTAAGTGC | 0.967 ± 0.064
CTCAAGGTGA | 1.45 ± 0.11
GGGCGCGGGA | 0.991 ± 0.015

Sequence | switch fluorescence ratio
TGGTTGGTTG | 0.988 ± 0.02
TTAGGTGAGG | 0.993 ± 0.026
TAAAAGTCGG | 1.01 ± 0.019
ATTTTGCAAG | 0.994 ± 0.018
TGATTCGTTT | 0.985 ± 0.094
AAAATGGCAG | 1.004 ± 0.0089
TAAAACAGCG | 1.01 ± 0.012
TTAAGACGGT | 1.03 ± 0.031
CCATAGAGAA | 1.02 ± 0.043
TATTTTTTCT | 0.994 ± 0.045
AAGTTTTCAG | 0.97 ± 0.021
CGGTTCCGTA | 0.971 ± 0.047
TAGGGGTGGT | 0.984 ± 0.032
TGGAAATTTT | 1 ± 0.038
TAGGCTTATG | 0.9786 ± 0.0037
GGATTAATCT | 0.998 ± 0.019
CAAGTTTATT | 1.001 ± 0.01
TCAGTCATGT | 0.992 ± 0.028
CAAGGTCGGC | 1 ± 0.04
AAGGTGAGGG | 1.03 ± 0.02
TAGAACGGGG | 0.9978 ± 0.0022
TAAATTGGTA | 1.04 ± 0.016
TATTTTGTAT | 1 ± 0.019

Sequence | switch fluorescence ratio
TTGTGGCGGA | 1.0229 ± 0.00038
TTTTGGGGAT | 1.01 ± 0.026
TGAAGTATTT | 1 ± 0.037
ATGGGGATAC | 1.06 ± 0.026
TTGAGGGGAT | 1.004 ± 0.0059
TATTGGGGGG | 0.999 ± 0.025
AGGGCAAGAG | 1.38 ± 0.054
AAAGGATGAG | 0.979 ± 0.019
CCCAGGAGTT | 1.94 ± 0.16
GAGGCTAGGT | 1.01 ± 0.029
TTCTCGTTCT | 0.996 ± 0.045
GGTGTGAGTG | 0.973 ± 0.025
TTGCGCTATT | 1.07 ± 0.018
TGTGGGGTTT | 1 ± 0.057
TTAATCTTTT | 1.06 ± 0.14
TTACTTGTAC | 1.15 ± 0.025
CAGTTAAGTA | 0.973 ± 0.028
CGAGGCTCCG | 1.05 ± 0.026
GCCCATAGAC | 1.12 ± 0.041
AGTAAGGGAG | 1.01 ± 0.082
AGTCGGGCGT | 1 ± 0.046
GGGTTTTGGG | 0.979 ± 0.064
TGCGCCCGGG | 1.033 ± 0.0076

Sequence | switch fluorescence ratio
GATGTGAGCC | 1.01 ± 0.018
CATATCATAC | 1.079 ± 0.0078
ACGGAAATGT | 1.18 ± 0.1
GACGGCGCTG | 0.957 ± 0.049
CCGGGGTCGA | 1.57 ± 0.77
AGAGTCGTGC | 0.997 ± 0.051
AGGTGTTTGT | 1.01 ± 0.028
CGGGGTCGTT | 1 ± 0.024
GGACAAGAGA | 0.996 ± 0.038
TTAACCGGTA | 1.02 ± 0.0039
GTTGTCAGGG | 0.982 ± 0.012
CGTTGTTGGA | 1 ± 0.025
TTTGTGGCGT | 0.984 ± 0.023
AACAGTGTTT | 0.971 ± 0.065
ATGAAGGGGT | 0.959 ± 0.033
GATACCTTTT | 1.13 ± 0.24
GCTTGTAGGC | 0.994 ± 0.017
TTGGGAGGAT | 1.12 ± 0.2
CGAGCGGGGG | 1.01 ± 0.047
TGTGATTTGT | 0.9702 ± 0.0032
GTGATTGCGG | 1.02 ± 0.069
GGGGTGGTAA | 1.01 ± 0.02
TTTTCAGTTT | 1.022 ± 0.01

Sequence | switch fluorescence ratio
AAGGTGTGGG | 1.01 ± 0.015
AGGTGGCCGT | 0.963 ± 0.02
TATAGGCCCC | 0.983 ± 0.015
CGGTTGTAGT | 0.993 ± 0.032
GAGTGCTATT | 0.981 ± 0.013
GAGTGTGATG | 0.97 ± 0.021
TCACCAGATT | 1.017 ± 0.008
TTTTTCATAA | 0.999 ± 0.027
TATGATCTTT | 1.029 ± 0.0052
CGTTCGATGC | 1.21 ± 0.042
TAGAATTTGG | 1.01 ± 0.06
TGAGGGTGGT | 0.981 ± 0.0012
TTCTTAGCCG | 1.0545 ± 0.00031
AGCTTATCTA | 1 ± 0.011
GAGGCTTTTT | 0.979 ± 0.024
AATTTAATAT | 1.01 ± 0.016
CCTGGGGGTT | 1.6 ± 0.79
CATCGTGCTG | 0.978 ± 0.052
ACGATCTTGC | 1.02 ± 0.035
CGTTCAAGTA | 0.973 ± 0.056
TCGGGGGGAT | 1.21 ± 0.36
TCGGAGCCAC | 3.16 ± 3
CAATAGAAGT | 0.979 ± 0.037

Sequence | switch fluorescence ratio
CAGGCAGGAC | 2.24 ± 0.17
CATTGCTTTT | 0.991 ± 0.024
TGTGAGGGGG | 1.01 ± 0.038
AGTGTGTGAA | 0.962 ± 0.01
CATAGTTGTT | 1.025 ± 0.0018
ACGTCATAGT | 1.14 ± 0.047
GCCCATAGGA | 0.978 ± 0.094
CGTAGACGGT | 0.9592 ± 0.0063
CATTGTTATC | 1.08 ± 0.085
TCGTTGAATG | 0.956 ± 0.014
GGCATATGCT | 1.02 ± 0.025
TATTAACGTT | 1.015 ± 0.0039
CGGGGGTAGT | 1.03 ± 0.015
TTATGTTAAA | 1.01 ± 0.022
AGAGGAAGGG | 0.993 ± 0.01
AATCGGTCAC | 0.998 ± 0.025
TTCGCGTTTT | 1.02 ± 0.04
GAAGGCCTTG | 1.01 ± 0.025
TCCCCTGTGT | 1.86 ± 0.54
GCGAGTAGG | 1.06 ± 0.056
AGGGTTGAAG | 0.989 ± 0.035
GGTTTGCGTG | 0.988 ± 0.0043
TGATTGTATC | 0.981 ± 0.055

Sequence | switch fluorescence ratio
ATTGTAGGC | 1.01 ± 0.029
GGCTTTCATT | 0.983 ± 0.013
GCGCGGCTGG | 1.02 ± 0.00077
CGAGTGTCAG | 0.976 ± 0.028
AGTATGAGTT | 0.9737 ± 0.0017
GTTAGAATAA | 0.958 ± 0.015
GGTGCGCGGA | 1.034 ± 0.0064
GTGTGACAAA | 1 ± 0.037
CCAGAGGGTG | 1.45 ± 0.52
ACGTTTGTTA | 1.002 ± 0.0059
GCAGCTGGCT | 1.02 ± 0.11
TTTTTCATCC | 1.18 ± 0.31
ATTATGGTCG | 0.999 ± 0.084
GCTCGAGATT | 1.026 ± 0.0027
TAGTACGGAT | 1.01 ± 0.007
GATCTAGGAG | 1.02 ± 0.017
CAGTTTTAGT | 1.01 ± 0.032
TACGTTTTTC | 1.003 ± 0.0048
AAAGATATAA | 1.03 ± 0.036
